Assay results from US20230183342A1 (YISSUM RESEARCH DEVELOPMENT COMPANY OF THE HEBREW …, published 2023).

Legend:
[1] = target: T1, NKp46 D1 domain-Ig (human, UniProt O76036 22-120); assay: ELISA, D1-Ig plated at 0.1 ug/well, biotin anti-mouse / streptavidin-POD / TMB, OD 650nm
T1 construct: domain: D1; also called D1-Ig; Ig-D1; not shown: Ig part not described for this construct
Protocol: To identify the binding site of the anti-NKp46 mAbs, Ig-D1, Ig-D2 and Ig-NKp46 were plated at 0.1 µg/well. The plate was placed at 4° C. overnight. The next day blocking was performed (blocking buffer is PBSx1, 0.05%Tween-20, and 5% BSA) followed by addition of the mAbs at 0.1 µg/well and 10 µl/well of SN antibodies (both diluted in blocking buffer to a final volume of 100µl). The plate was placed at 4° C. overnight. The next day, biotin anti-mouse was added (diluted in blocking buffer), followed by streptavidin-POD (diluted in blocking buffer), and with TMB for detection of samples at OD650nm.

[2] = target: T2, Acro Biosystems Human NKp46 expressed in HEK293 cells (human, UniProt O76036 22-258); assay: ELISA titration on coated Acro Biosystems human NKp46, anti-human kappa-HRP, absorbance at 450 nm; given as affinity
T2 construct: Bought antigen coated on the ELISA plate
Protocol: The binding of the humanized antibodies with mutated IgG4 to cells expressing NKp46 was examined. The experiments were performed as follows: [0300] 1. Coat tested in a matrix of 3 conc. vs. 3 buffers to find optimal signal. [0301] 2. Optimal signal conditions were used to coat the ELISA tray, using standard blocking and washing steps. [0302] 3. Primary antibody applied in range of concentrations with 10-dilutions (MAbs with humanized variable + mutated IgG4). [0303] 4. Secondary Ab used to detect binding was Anti-Hu Kappa with HRP (TMB sub strate). [0304] 5. Absorbance measured at 450 nm.
The antigen was Acro Biosystems Human NKp46 that was expressed in HEK293 cells.

T2 sequence (O76036 22-258 limits assumed): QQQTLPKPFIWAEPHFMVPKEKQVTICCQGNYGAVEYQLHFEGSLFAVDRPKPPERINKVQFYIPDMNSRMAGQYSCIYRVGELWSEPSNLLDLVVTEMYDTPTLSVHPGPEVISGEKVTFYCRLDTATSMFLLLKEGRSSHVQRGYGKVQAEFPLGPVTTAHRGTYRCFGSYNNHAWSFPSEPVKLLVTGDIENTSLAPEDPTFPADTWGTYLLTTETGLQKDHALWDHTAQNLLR
T1 sequence (O76036 22-120): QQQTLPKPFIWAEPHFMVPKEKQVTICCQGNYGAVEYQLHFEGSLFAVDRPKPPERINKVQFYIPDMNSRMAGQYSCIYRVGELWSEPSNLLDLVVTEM

| Binder | binding result [1] | Kd [2] |
| --- | --- | --- |
| anti-NKp46 monoclonal antibody clone K3 (antibody, V domains shown) VH: EVQLQQSGPELVKPGTSVKISCKTSGYTFTEYSMHWVKQSHGKSLEWFGGISPNSGGTSYNQKFKGKATLTVDKSSSTAYMELRSLTSEDSAVYYCARRDFHSSFDYWGQGTTLTVSS VL: DIVLTQSPATLSVTPGNSVSLSCRASQSISDYLHWFQQKSHESPRLLIKYASQSISGIPSRFSGSGSGSDFTLSINSVEPEDVGVYYCQNGHSFPLTFGPGTKLELK | no binding |  |
| humanized P4 antibody having mutated IgG4 (antibody, V domains shown, detected with an anti-human kappa secondary antibody) VH: EVQLQQSGAEVKKPGSSVKVSCKTSGYTFTEYSMHWVRQAPGKSLEWFGGISPNSGGTSYNQKFKGRATLTVDKSSSTAYMELSSLRSEDTAVYYCARRDFHSSFDYWGQGTTVTVSS VL: DIVMTQSPATLSLSPGERATLSCRASQSISDYLHWFQQKPHESPRLLIKYASQSISGIPARFSGSGSGSDFTLTISSLEPEDFAVYYCQNGHSFPLTFGPGTKVDIK |  | 0.0205 nM |
| humanized K3 antibody having mutated IgG4 (antibody, V domains shown, detected with an anti-human kappa secondary antibody) VH: EVQLQQSGAEVKKPGSSVKVSCKTSGYTFTEYSMHWVRQAPGKSLEWFGGISPNSGGTSYNQKFKGRATLTVDKSSSTAYMELSSLRSEDTAVYYCARRDFHSSFDYWGQGTTVTVSS VL: DIVLTQSPATLSLSPGERATLSCRASQSISDYLHWFQQKPHESPRLLIKYASQSISGIPARFSGSGSGSDFTLTISSLEPEDFAVYYCQNGHSFPLTFGPGTKVDIKR |  | 0.027 nM |
